Assay results from paper PMC8287961.

Target: KAP1 (UniProt Q13263)
Assay: GFP-Trap IP from nuclear lysate, coomassie gel
Conditions: reference: GFP-HP1β wild type; sites S89,S91

binding against the reference: weaker
Substance: HP1β (from UniProt P83917) GFP-HP1β S89/91A
